Test results reported in publication PMC3936760 (Nucleic Acids Research, 2013).

Target: full-length human poly(A)-binding protein (PABP, PABPC1) (human, UniProt P11940 1-636)
Assay: FRET or BRET

Chain of full-length human poly(A)-binding protein (PABP, PABPC1) (P11940 whole entry): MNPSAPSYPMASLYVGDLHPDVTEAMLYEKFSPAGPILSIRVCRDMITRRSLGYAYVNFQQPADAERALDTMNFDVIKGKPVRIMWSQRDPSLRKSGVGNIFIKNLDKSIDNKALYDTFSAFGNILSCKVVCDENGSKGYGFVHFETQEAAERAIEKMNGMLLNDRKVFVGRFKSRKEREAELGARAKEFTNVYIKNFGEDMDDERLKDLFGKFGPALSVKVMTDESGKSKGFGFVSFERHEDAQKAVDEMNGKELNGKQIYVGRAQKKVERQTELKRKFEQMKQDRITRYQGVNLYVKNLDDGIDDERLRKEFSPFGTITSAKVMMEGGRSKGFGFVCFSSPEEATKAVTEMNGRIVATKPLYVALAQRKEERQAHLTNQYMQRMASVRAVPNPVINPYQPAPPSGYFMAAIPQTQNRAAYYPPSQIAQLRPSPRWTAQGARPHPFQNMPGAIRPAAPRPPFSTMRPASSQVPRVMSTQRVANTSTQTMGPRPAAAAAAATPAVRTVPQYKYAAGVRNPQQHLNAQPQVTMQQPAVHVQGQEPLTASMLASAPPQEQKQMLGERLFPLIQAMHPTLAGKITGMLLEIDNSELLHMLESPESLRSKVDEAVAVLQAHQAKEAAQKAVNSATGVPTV

B1: GST-tagged human PABP-interacting protein 2 (Paip2) (natural protein, UniProt Q9BPZ3 1-127, looked up)
chain: MKDPSRSSTSPSIINEDVIINGHSHEDDNPFAEYMWMENEEEFNRQIEEELWEEEFIERCFQEMLEEEEEHEWFIPARDLPQTMDQIQDQFNDLVISDGSSLEDLVVKSNLNPNAKEFVPGVKYGNI
B1 gave a kon of 153000 M⁻¹ s⁻¹.
